Here are results for 1 protein from publication PMC8005036 (Vaccines, 2021).

The data set concerns the molecule itself. Put plainly: negative-stain transmission elect.

B1: LS-SpyTag (Aquifex aeolicus lumazine synthase multimeric protein scaffold particle with SpyTag) (other)
chain: MQIYEGKLTAEGLRFGIVASRFNHALVDRLVEGAIDAIVRHGGREEDITLVRVPGSWEIPVAAGELARKEDIDAVIAIGVLIRGATPHFDYIASEVSKGLANLSLELRKPITFGVITADTLEQAIERAGTKHGNKGWEAALSAIEMANLFKSLRGGGGSGGGGSGGGGSAHIVMVDAYKPTK
notes: also called LS-ST; LS-MPSPs; copies: 60
For the protein B1, the binding result is “binds”.
